Experimental findings from patent publication US20190233495A1 (Sanofi, published 2019) are described below.

The labels stand for the following.
T1: RXFP1 receptor (UniProt Q9HBX9 1-757, limits assumed)
T1 sequence (looked up): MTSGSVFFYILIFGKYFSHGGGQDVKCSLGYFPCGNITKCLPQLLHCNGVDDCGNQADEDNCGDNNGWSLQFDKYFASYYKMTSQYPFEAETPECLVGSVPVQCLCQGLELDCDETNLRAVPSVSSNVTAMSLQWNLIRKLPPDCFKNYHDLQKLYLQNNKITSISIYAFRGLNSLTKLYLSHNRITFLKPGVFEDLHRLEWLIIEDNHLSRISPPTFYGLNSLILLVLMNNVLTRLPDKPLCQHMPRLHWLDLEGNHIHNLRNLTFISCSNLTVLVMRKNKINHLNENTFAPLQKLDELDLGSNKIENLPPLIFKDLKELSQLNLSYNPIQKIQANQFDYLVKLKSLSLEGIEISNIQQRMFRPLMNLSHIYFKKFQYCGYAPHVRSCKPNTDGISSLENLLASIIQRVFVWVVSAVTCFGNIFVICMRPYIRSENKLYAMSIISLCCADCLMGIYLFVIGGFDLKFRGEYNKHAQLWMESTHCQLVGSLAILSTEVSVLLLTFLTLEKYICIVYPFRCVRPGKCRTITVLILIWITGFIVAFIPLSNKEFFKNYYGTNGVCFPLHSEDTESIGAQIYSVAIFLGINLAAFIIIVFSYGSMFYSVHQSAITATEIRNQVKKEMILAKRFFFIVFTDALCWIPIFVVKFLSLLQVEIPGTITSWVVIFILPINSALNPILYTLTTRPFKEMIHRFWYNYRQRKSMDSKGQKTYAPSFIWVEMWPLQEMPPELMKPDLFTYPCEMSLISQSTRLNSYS

B1: SEQ ID NO: 22 (peptide)
peptide: Ac-LEGREKVRAQI[Aib][Aib]EG[Nle]STWA[Aib]RKK-NH2
SMILES: CCCC[C@H](NC(=O)CNC(=O)[C@H](CCC(=O)O)NC(=O)C(C)(C)NC(=O)C(C)(C)NC(=O)[C@@H](NC(=O)[C@H](CCC(N)=O)NC(=O)[C@H](C)NC(=O)[C@H](CCCNC(=N)N)NC(=O)[C@@H](NC(=O)[C@H](CCCCN)NC(=O)[C@H](CCC(=O)O)NC(=O)[C@H](CCCNC(=N)N)NC(=O)CNC(=O)[C@H](CCC(=O)O)NC(=O)[C@H](CC(C)C)NC(C)=O)C(C)C)[C@@H](C)CC)C(=O)N[C@@H](CO)C(=O)N[C@H](C(=O)N[C@@H](Cc1c[nH]c2ccccc12)C(=O)N[C@@H](C)C(=O)NC(C)(C)C(=O)N[C@@H](CCCNC(=N)N)C(=O)N[C@@H](CCCCN)C(=O)N[C@@H](CCCCN)C(N)=O)[C@@H](C)O
B2: SEQ ID NO: 21 (peptide)
peptide: Ac-LEGREKVRAQI[Aib][Aib]EG[Nle]STWS[Aib]RKK(Ac)-NH2
SMILES: CCCC[C@H](NC(=O)CNC(=O)[C@H](CCC(=O)O)NC(=O)C(C)(C)NC(=O)C(C)(C)NC(=O)[C@@H](NC(=O)[C@H](CCC(N)=O)NC(=O)[C@H](C)NC(=O)[C@H](CCCNC(=N)N)NC(=O)[C@@H](NC(=O)[C@H](CCCCN)NC(=O)[C@H](CCC(=O)O)NC(=O)[C@H](CCCNC(=N)N)NC(=O)CNC(=O)[C@H](CCC(=O)O)NC(=O)[C@H](CC(C)C)NC(C)=O)C(C)C)[C@@H](C)CC)C(=O)N[C@@H](CO)C(=O)N[C@H](C(=O)N[C@@H](Cc1c[nH]c2ccccc12)C(=O)N[C@@H](CO)C(=O)NC(C)(C)C(=O)N[C@@H](CCCNC(=N)N)C(=O)N[C@@H](CCCCN)C(=O)N[C@@H](CCCCNC(C)=O)C(N)=O)[C@@H](C)O
B3: SEQ ID NO: 25 (peptide)
peptide: Ac-LEGREKVRAK(Ac)I[Aib][Aib]EG[Nle]STWSK(Ac)RKKK-NH2
SMILES: CCCC[C@H](NC(=O)CNC(=O)[C@H](CCC(=O)O)NC(=O)C(C)(C)NC(=O)C(C)(C)NC(=O)[C@@H](NC(=O)[C@H](CCCCNC(C)=O)NC(=O)[C@H](C)NC(=O)[C@H](CCCNC(=N)N)NC(=O)[C@@H](NC(=O)[C@H](CCCCN)NC(=O)[C@H](CCC(=O)O)NC(=O)[C@H](CCCNC(=N)N)NC(=O)CNC(=O)[C@H](CCC(=O)O)NC(=O)[C@H](CC(C)C)NC(C)=O)C(C)C)[C@@H](C)CC)C(=O)N[C@@H](CO)C(=O)N[C@H](C(=O)N[C@@H](Cc1c[nH]c2ccccc12)C(=O)N[C@@H](CO)C(=O)N[C@@H](CCCCNC(C)=O)C(=O)N[C@@H](CCCNC(=N)N)C(=O)N[C@@H](CCCCN)C(=O)N[C@@H](CCCCN)C(=O)N[C@@H](CCCCN)C(N)=O)[C@@H](C)O
B4: SEQ ID NO: 24 (peptide)
peptide: Ac-LEGREKVRAK(Ac)I[Aib][Aib]EG[Nle]STWS[Aib]RKK-NH2
SMILES: CCCC[C@H](NC(=O)CNC(=O)[C@H](CCC(=O)O)NC(=O)C(C)(C)NC(=O)C(C)(C)NC(=O)[C@@H](NC(=O)[C@H](CCCCNC(C)=O)NC(=O)[C@H](C)NC(=O)[C@H](CCCNC(=N)N)NC(=O)[C@@H](NC(=O)[C@H](CCCCN)NC(=O)[C@H](CCC(=O)O)NC(=O)[C@H](CCCNC(=N)N)NC(=O)CNC(=O)[C@H](CCC(=O)O)NC(=O)[C@H](CC(C)C)NC(C)=O)C(C)C)[C@@H](C)CC)C(=O)N[C@@H](CO)C(=O)N[C@H](C(=O)N[C@@H](Cc1c[nH]c2ccccc12)C(=O)N[C@@H](CO)C(=O)NC(C)(C)C(=O)N[C@@H](CCCNC(=N)N)C(=O)N[C@@H](CCCCN)C(=O)N[C@@H](CCCCN)C(N)=O)[C@@H](C)O
B5: SEQ ID NO: 23 (peptide)
peptide: Ac-LEGREKVRAQI[Aib][Aib]EG[Nle]STWT[Aib]RKK-NH2
SMILES: CCCC[C@H](NC(=O)CNC(=O)[C@H](CCC(=O)O)NC(=O)C(C)(C)NC(=O)C(C)(C)NC(=O)[C@@H](NC(=O)[C@H](CCC(N)=O)NC(=O)[C@H](C)NC(=O)[C@H](CCCNC(=N)N)NC(=O)[C@@H](NC(=O)[C@H](CCCCN)NC(=O)[C@H](CCC(=O)O)NC(=O)[C@H](CCCNC(=N)N)NC(=O)CNC(=O)[C@H](CCC(=O)O)NC(=O)[C@H](CC(C)C)NC(C)=O)C(C)C)[C@@H](C)CC)C(=O)N[C@@H](CO)C(=O)N[C@H](C(=O)N[C@@H](Cc1c[nH]c2ccccc12)C(=O)N[C@H](C(=O)NC(C)(C)C(=O)N[C@@H](CCCNC(=N)N)C(=O)N[C@@H](CCCCN)C(=O)N[C@@H](CCCCN)C(N)=O)[C@@H](C)O)[C@@H](C)O
B6: SEQ ID NO: 3 (peptide)
peptide: Ac-LEGREKVRAQI[Aib][Aib]EG[Nle]STWS[Aib]RKK-NH2
SMILES: CCCC[C@H](NC(=O)CNC(=O)[C@H](CCC(=O)O)NC(=O)C(C)(C)NC(=O)C(C)(C)NC(=O)[C@@H](NC(=O)[C@H](CCC(N)=O)NC(=O)[C@H](C)NC(=O)[C@H](CCCNC(=N)N)NC(=O)[C@@H](NC(=O)[C@H](CCCCN)NC(=O)[C@H](CCC(=O)O)NC(=O)[C@H](CCCNC(=N)N)NC(=O)CNC(=O)[C@H](CCC(=O)O)NC(=O)[C@H](CC(C)C)NC(C)=O)C(C)C)[C@@H](C)CC)C(=O)N[C@@H](CO)C(=O)N[C@H](C(=O)N[C@@H](Cc1c[nH]c2ccccc12)C(=O)N[C@@H](CO)C(=O)NC(C)(C)C(=O)N[C@@H](CCCNC(=N)N)C(=O)N[C@@H](CCCCN)C(=O)N[C@@H](CCCCN)C(N)=O)[C@@H](C)O
B7: SEQ ID NO: 19 (peptide)
peptide: Ac-LEGREKVRA[Aib]I[Aib][Aib]EG[Nle]STWSKRKK-NH2
SMILES: CCCC[C@H](NC(=O)CNC(=O)[C@H](CCC(=O)O)NC(=O)C(C)(C)NC(=O)C(C)(C)NC(=O)[C@@H](NC(=O)C(C)(C)NC(=O)[C@H](C)NC(=O)[C@H](CCCNC(=N)N)NC(=O)[C@@H](NC(=O)[C@H](CCCCN)NC(=O)[C@H](CCC(=O)O)NC(=O)[C@H](CCCNC(=N)N)NC(=O)CNC(=O)[C@H](CCC(=O)O)NC(=O)[C@H](CC(C)C)NC(C)=O)C(C)C)[C@@H](C)CC)C(=O)N[C@@H](CO)C(=O)N[C@H](C(=O)N[C@@H](Cc1c[nH]c2ccccc12)C(=O)N[C@@H](CO)C(=O)N[C@@H](CCCCN)C(=O)N[C@@H](CCCNC(=N)N)C(=O)N[C@@H](CCCCN)C(=O)N[C@@H](CCCCN)C(N)=O)[C@@H](C)O
B8: SEQ ID NO: 20 (peptide)
peptide: Ac-LEGREKVRA[Aib]I[Aib][Aib]EG[Nle]STWS[αMeK]RKK-NH2
SMILES: CCCC[C@H](NC(=O)CNC(=O)[C@H](CCC(=O)O)NC(=O)C(C)(C)NC(=O)C(C)(C)NC(=O)[C@@H](NC(=O)C(C)(C)NC(=O)[C@H](C)NC(=O)[C@H](CCCNC(=N)N)NC(=O)[C@@H](NC(=O)[C@H](CCCCN)NC(=O)[C@H](CCC(=O)O)NC(=O)[C@H](CCCNC(=N)N)NC(=O)CNC(=O)[C@H](CCC(=O)O)NC(=O)[C@H](CC(C)C)NC(C)=O)C(C)C)[C@@H](C)CC)C(=O)N[C@@H](CO)C(=O)N[C@H](C(=O)N[C@@H](Cc1c[nH]c2ccccc12)C(=O)N[C@@H](CO)C(=O)N[C@@](C)(CCCCN)C(=O)N[C@@H](CCCNC(=N)N)C(=O)N[C@@H](CCCCN)C(=O)N[C@@H](CCCCN)C(N)=O)[C@@H](C)O
B9: SEQ ID NO: 18 (peptide)
peptide: Ac-LEGREKVRAAI[Aib][Aib]EGMSKWS[Aib]RK-NH2
SMILES: CC[C@H](C)[C@H](NC(=O)[C@H](C)NC(=O)[C@H](C)NC(=O)[C@H](CCCNC(=N)N)NC(=O)[C@@H](NC(=O)[C@H](CCCCN)NC(=O)[C@H](CCC(=O)O)NC(=O)[C@H](CCCNC(=N)N)NC(=O)CNC(=O)[C@H](CCC(=O)O)NC(=O)[C@H](CC(C)C)NC(C)=O)C(C)C)C(=O)NC(C)(C)C(=O)NC(C)(C)C(=O)N[C@@H](CCC(=O)O)C(=O)NCC(=O)N[C@@H](CCSC)C(=O)N[C@@H](CO)C(=O)N[C@@H](CCCCN)C(=O)N[C@@H](Cc1c[nH]c2ccccc12)C(=O)N[C@@H](CO)C(=O)NC(C)(C)C(=O)N[C@@H](CCCNC(=N)N)C(=O)N[C@@H](CCCCN)C(N)=O

Non-standard residues stand in square brackets, D forms with d. αMeK = C[C@](N)(CCCCN)C(=O)O; Nle = CCCC[C@H](N)C(=O)O; Aib = CC(C)(N)C(=O)O

In the experiment the target is T1, RXFP1 receptor. Put plainly: cell-based or functional assay.
For the molecule B1, the “cAMP assay in OVCAR 5 cells EC50” value was 57.1 nM and the “cAMP assay in OVCAR 5 cells Emax” value was determined as 102%.
In the same order, the values of B2 are 32.8 nM and 96%.
In the same order, the values of B3 are 4.2 nM and 100%.
In the case of B4, the “cAMP assay in OVCAR 5 cells EC50” value amounted to 47.9 nM and the “cAMP assay in OVCAR 5 cells Emax” value was 92%.
For B5, in that order: 128 nM and 95%.
As to B6, the “cAMP assay in OVCAR 5 cells EC50” value worked out at 12 nM and the “cAMP assay in OVCAR 5 cells Emax” value amounted to 97%.
In the case of B7, the “cAMP assay in OVCAR 5 cells EC50” value worked out at 18.2 nM and the “cAMP assay in OVCAR 5 cells Emax” value turned out to be 97%.
In the same order, the values of B8 are 1.8 nM and 97%.
As for B9, the “cAMP assay in OVCAR 5 cells EC50” value came to 52.1 nM and the “cAMP assay in OVCAR 5 cells Emax” value came out at 104%.
